Results on 19 sequences are retold here after a protein production outcome set (Wang et al. 2014).
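Note: failed if final PepcDB status was selected cloned or expressed and not failed if soluble or beyond.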

The data set can be described thus: label from the status in PepcDB records.
With “MLISAIIGGVEYINLYRFPEIPLVGFTLIGVVLSIFLGFKNTACYDRWWEARKLWGVLIATSRHFDRDCRILTQARRERVIQHVIVFANVLRDRLRRQTANPTELIQTSGMSQQALTQLYQQNNAPQYTLSLIQWELLQALKEGEISDIIYAQMNKNVADLSVVQTGCDRIANTPIPFAYSVLLNRTVYFFCFMLPFSLGSLLGLATPLLVGILAYTFLGLDALSTEIEEPFGTQSNDLPLDAMVRSIEIELLGTLGKPTPPPIQAQDNNLL”, the protein production entry is reported as “failed”.
“MLISIESKEHYRILCIDGGSTDQTIPMIERLQRELKHISLIQLQNASIATCINKGLMDIKMTDPHDSDAFMVINPTSIVLPGKLDRLTAAFKNNDNIDMVIGQRAYNYHGEWKLKSADEFIKDNRIVTLTEQPDLLSMMSFDGKLFSAKFAELQCDETLANTYNHAILVKAMQKATDIHLVSQMIVGDNDIDTHATSNDEDFNRYIIEIMKIRQRVMEMLLLPEQRLLYSDMVDRILFNNSLKYYMNEHPAVTHTTIQLVKDYIMSMQHSDYVSQNMFDIINTVEFIGENWDREIYELWRQTLIQVGINRPTYKKFLIQLKGRKFAHRTKSMLKRLEHHHHHH”: the protein production entry is listed as “failed”.
The entry for “MLISKKTLGVLIPDIFSFSNDQIAQKLEQMGIEVESIKQFNSPDYLQLAKVVSIQPHPHDNKLFICELQIDKNKFINVVSNANNINNPDNINKFVIVAKKGTELLNGLIVKTQNIKGIISEGILCSYIDINPFSRQIIEKTEVADAIIIDHVSNDHDWNQYLSFLSLDDVIFDVKTPTNRADLHSLIFLAKELGVLLKTKTFLKQKSSVVNHDFFKFPLNLKNKLKANYFGGLFLRQINQHSSPWTVKGLLINQMIKPVNYYVDKANLVTVFTAQPIHCHDADRIVGNIELKQATHNETFVGLDDKQYEIEPGDIVVCDEKGIIALVGIIGSKRTMVQPTTTNIFFEVVNCNSETIKQTAKRFLINNFASKFMVKPISLLATDNCLNYLQNSLLTTDNIGKISHFSSSLKVEPFSKKLTVNFHKIRQLIGIEKKELTDQTIKKSLSQLGFKVDNQLLKIPSYRQDINTWQDISEEIVKLIDINKLKPIGITSSFNFEKSSYFNTFNALTKLRKKLQTLGFHNVITYQLTDQKSAKTFNLFNLENFITIKNPVSQNHSVMRVSLIDSLLKVLKTNNNYKNELVNIFEFSFIKTQNNSELHLAVLWVEKLFTSSFNPMQGISNDVFTMKGLAKLIVANLGFSCDFEPLDDSDYFVNNQSLKIVVFNEQIGFIGLIKESLLNNYDLNNKPIYCLEINLDRMLSSLNRIEKNYLGYSKLQPVCKDLTFSFTNPASHFDQFANMIKRITGIESWKLISVFETMQNNQLITKYTVRYFLKNDANKPLTNQTIELITNNLKLQCEKLKIKLDI” is “failed”; for “MLISLIVPIYNVEGFLPRCLDSIIKQEYQNLEIVLVNDGSTDQSGLICDQYAEKDERFIVFHKENGGVSSARNVGLNKANGNYIGFVDPDDWIEPNMINKLYELIIQHKADIAMCGYVKEDINGLLISRPVELSTKILNKEDTLNSILNPNDFRGFLCNKLFSVDLFRKKNLYLDEDIHFCEDLLFCCQAILESKQIVYDSTPYYHYIIHNNNASKSNFSFKKLTALNSLDNIINLLNDQKGIELEQYKNYYMHLNISLLMNGIHEDKIRRQDKERLKKNLYKFKINDLTSKFVKFSCVLARLNLNLYYFIWKNAKPSNLEHHHHHH” it is “failed”; for “MLIVSGCSSSQNNNGSGKSESKDSRVIHDEEGKTTVSGTPKRVVVLELSFLDAVHNLGITPVGIADDNKKDMIKKLVGSSIDYTSVGTRSEPNLEVISSLKPDLIIADAERHKNIYKQLKKIAPTIELKSREATYDETIDSFTTIAKALNKEDEGKEKLAEHKKVINDLKAELPKDENRNIVLGVARADSFQLHTSSSYDGEIFKMLGFTHAVKSDNAYQEVSLEQLSKIDPDILFISANEGKTIVDEWKTNPLWKNLKAVKNGQVYDADRDTWTRFRGIKSSETSAKDVLKKVYNK” it is “failed”.
On to “MLKEKAGVIAGTIWNALNETEGMTAKQLKKATKLVDKDLFLGLGWLLREDKVSVEEVEGELFIKLI”, for which the protein production result is listed as “failed”.
With “MLKGFNSGDISYEILEKKKENIEQQALERFLEEKSEKENKHIPKEDMLFNSKDSIAMERIVGKNDLFPISYLQIGLNISKSVCRISIRDSRGVVVGYGTGFLVAPNIILTNNHVINSYEVASNSIAEFNYQDDENFMPCPTYNFRLNPQTFFITNVKLDFTLVALNENVTNQKHLEDFGYLKMTQKEGTILPEEYVSIIQHPKGGPKSVTLRENKVSGLKENFIHYLTDTEPGSSGSPVFNDQWTLVALHHSGVPNPEIKDEWIANEGILISAIVNYLAKKYSSLKENEQAIIKEIVPDIELPKENNITSSVDDEPLGYNPLFLGKDYEIPLPKLSKEMEKDTAKTEDGNYVLDYIHFSIVMKKSRGLAYFTAVNIDGTDAVKIRRTADNWKFDPRISQNYQYGDEVYVNNDLDRGHLVRRTDPNWGKNALKANEDTFYFTNSTPQHKNLNQKTWVELEDYIFRNAVLNQFKVSVFTGPVFREDDMIYRQKYQIPAEFWKVVVMLKEDGNISATAYLQTQKNMIENLEFAYGEYKTYQVPVRNIEKLTGLDFGNLSKFDPMANIEATGIVITGPESIKF”, the protein production result is “failed”.
The entry for “MLKGFTRSSISPQLCSLYFKGLVGDDSLAGFGVAICGHRDDILFQLNAPIHGSDITVLEAELMALKRGLIEAAGFKSSFTIFVEGSSIRYVSELARATIVSELSISVDPPSSSLNGIEKLKLEDVIVWNVVNPYASTAKFGKSENVASMWKVPTHDRTFRRMHQSNLQFTFDFLGCWIGVAIRFATHAEQNGSKEVALIEQ” is “failed”; for “MLKILATQFNGKLQTLTKQEDELFDVVRLLAQALVGQGKVYLDAYGEFEGLYPMLSDGPDQMKRVTKIKDHKTLHAVDRVLIFTPDTERSDLLASLARYDAWHTPYSIITLGDVTETLERSIAPLALKFDKGLLPAEDGSRHGLPSLALGAFLLTHILTQLQEMTEEWE” it is “not failed”.
The entry for “MLKKLFAPPQKRERLSAEEIKHKYPRYRVQVLISIFVGYMGYYFVRNTTSILSGILNMSATEIGIITCASYIAYGLSKFISGLISDESNSKIFLPVGLFLTGLVNVLIGVIPSVITSIWLFTIMYLINGWLQGMGYPPGARTLVYWYDNKERIKYATIWNLSHNFGGAIAPILTGVGLALAGNDSLNQARAAYWFPGVVACLLAVLVYFLQEDTPESIGLPPIEEYHKEQYTNVVDSSDILEEPEVLGMGEIIKKYILPNTKLMWASLYSIFVYILRYGIVSWTPKFLATSVQDGGKGITATAGMGGFSLFEIGGIIGMLTAGYLSAKVFKNSKPLTNVAFLVVAILLLAAYWFIPAGPQYMALDFIILLGLGASIYGPVMMVGLYAMELVPKAAAGAASGLTGTFSYVGGATIATLAIGIIIDHFGWGVAFIIFGISGFAAIVCTLLSRDKSLEYW” is “failed”.
The entry for “MLKLSNFGPGALVAAAFIGPGTVVTASLAGANFGYALLWALLFSVVACVILQEMSARIGLVTQAGLGENIRNNLTSGWLRWLALLLIFSAIAIGNSVYQGGNLSGASLGASELLGPVPVLDVWLSNAWALIIGIIALLILWSGNARVIERALIVMVLLMSVAFIGTFLLTDPDWGAVFNGTFGFSMPTGATLTVVALIGTTVVPYNIFLHASSVSKKWKTAEELPAARRDLFLSIPFGGLISMAIVATAASAFFGQQVEIESAGDLAESLRPLFGDGATYLMAIGLFAAGISSATTAPLASAYALCGIMGWSVNLRSRAFRIIWFTILVIGIIISSVGIKPVTVIWFAQVANGILLPIIVGFLWWLCQSPLLGKYRNSLLQNILAAIIFLISVVLSGRSLGSAFGFW” is “failed”.
For “MLKPLVLSDSSPVRPRDLTLLDQEEAGLVSTFINRPPIDIFKILPSKDDPDWPSFQQILSKFPDTEHLCPDGGLVNNSFILDIVLPQKWIDHRVCNPRFFQSIVSTTCYFMGFVFYADLNLGFMHFSPFHIAII”, the protein production result is recorded as “failed”.
Under “MLKQTSDSPVGTLFIIIEDAHITKISYDEPTNWEILAGEKGEIAIYQQLLEQLAGYFEGEREVFDLPIFLQGTPFQQRVWQALSEIPYGVVVSYKDIAIAAGSPKAVQAVGQANRANPIPILIPCHRCVKSDGALGGYNGADIDKKQYLLALEKGLRLS” stands “failed”; under “MLKRTLLACLALSCSFPSYSADYITENLSTYMRKGAGDQYKIAGTIQAGEKITVLDRKDRFVLIRDSRNREGWVLNNEISQTASPKELIPELQQQIQDLSSKLNKIDNDWQQRTAEMQRRSQQAEQQSSELLDENTQLKRKLEVLKNKNRDLETMQDAEKREIVIQWFIYGGSVLTVGLLLGLLIPFILPRRRRNNGWSLEHHHHHH”, “failed”; under “MLKSQEIRQKAPELDSLRLGSGWKSEELNKAQIIIESSFGHSHPGSAHLDTLVDEAFKSIDDNGGRGAKYFVTDICDGETQGHDGMNYSLASRDIMTNLMEIHVQATPFDAGIFIASCDKAVPAHLMAIARLDMPSILVPGGIMNAGPNMLTLEQIGTYNAQYERGEITKEQYEHYKQNACPSCGACSFMGTASTMQVMSEALGIALPGTALIPVTSKELKLAAKNAGKQILKLIELNIKPSEIMTKKAFENAIMVHAAIAGSSNCLLHIPAIAHELGMDIEPELFDEIHKKIPYILNIRPSGFYPGSYFWNAGGVPAIMEEIKEFLHLDVMTVTGKTLGENLEDLKNSGYYEEHDKLITSLGIKKEDVIRTKENPIQSQGAIAILKGNLAPGGAVVKHSAISKKLMQVVLKARVFNCEEDAIKSVLTKNIKPGDAVFVRYEGPKGSGMPEMFYTTEAIASDHELVDSTALITDGRFSGATRGPAIGHVSPEASEGGPIAFVQEGDLIKIDIPARKLDIIGTNGIEKSEKEIENILKERSQNWVKPAPRYTKGILGLYTRCASSPMKGGYME”, “failed”.
For “MLKTILSISGKPGLFKLVSHGKNMLIVESLADKKRVPAYAKDKVISLGDIAIYTNEAEVPLHEVLTNVKNKENGQQASVSTSAKPDELRAYFAEILPNFDRERVYPSDIKKLISWYNILIGAGLTEFTPEGSATEEASVKETKKEEA”, the protein production entry was “failed”.
Under “MLKTLAVANYRSINKLVIPLGRLNLVTGANGSGKSNLYRALRLLAETAQGGVVNALAKEGGLESTYWAGPEQISRRMSQGEVPIQGGPRKAARRLQLGFAGEDFGYAISLGLPDSSGHFMLPGHSSPIASRFTLDPWIKRESIWGGPLYRSASALVDRQGPMIRARAGRQWEVLAQHTSSGDSLFDRVGNLSSSPEVLHLREQIRGWRFYDHLRTDSQAPARRPQLGTRTPVLHHDGRDLAAALQTIIEVGDQQALHETISDAFPESRLEIDAVPGGLFGVQFYQEGLLRPLSAAELSDGTLRYLLLVAALLTPRPPTLMVLNEPETSLHPDLLPALARLIIRASQQCQVWVVSHARRLIAALQQDPECNCIVLEKQLGQTGIVGQRMLDEPAWNWPDLEHHHHHH” stands “failed”; under “MLKTLLTSDVIQVVSQAKDWRDAIAISCQPLIDNGAVEARYVEAIYRSHEAIGPYYVVGPGIAMPHARPEDGVNRLSLALTVITEGVTFNAEGNDPVKLLIVLAATDSNSHIEAISQLAQLFDTASDVQALLNAKTPQDILSVIARY”, “not failed”; under “MLKYSNHMAFKDLREYIEFMKKKGKLIEVDDEVSVDLEIAEITRKATYAHLPPLLFKRVKNYENWKIVSNIFYSIESLYEIFGTNKLESISEGFLSNLSNMPITFFDKIKSLREILGLGKVMPKAKSPSFKEEKNLDLTKIPAIKTWPKDAGRYLTFSITITKDPETDVHNLSVYRVQILNEKEAIIHWQAFKRGALTAKKYLEKGISKIPIAVVTGVDPAIAFTAASPVPHGIDKYMFAGILRGEGIDVAELDNQLLVPSHSEVVLTGYVDLNDMRLEGPFGDHMGYYTPADYYPVFKLERVYIREDPIFHVTSVGKPPLEDAWIGKAVERIFLPFAKMLVPELIDMNLPEYGLFTGIGIFSIKKYYPGQAKRVMMALWGTGQLSLLKIIIVVDQDIDVHDINQVIYAIAANVDPKRDVWVIENALTDSLDPSVPFPPLGSKLGIDATRKFKEEMGKEWPEEVRSDEVVAKKADQILNKIIKRYQTSLEHHHHHH”, “failed”.
